T1: recombinant human TROP2 extracellular domain (aa 1-274) comprising His tag (human, UniProt P09758 27-274)
T1 construct: Used here for all assays on recombinant human TROP2 (ELISA, immunoblot, SPR, crystal), although only some of them name the catalogue number; also called human recombinant TROP2; recombinant human TROP2 protein; not shown: His tag
T1 sequence: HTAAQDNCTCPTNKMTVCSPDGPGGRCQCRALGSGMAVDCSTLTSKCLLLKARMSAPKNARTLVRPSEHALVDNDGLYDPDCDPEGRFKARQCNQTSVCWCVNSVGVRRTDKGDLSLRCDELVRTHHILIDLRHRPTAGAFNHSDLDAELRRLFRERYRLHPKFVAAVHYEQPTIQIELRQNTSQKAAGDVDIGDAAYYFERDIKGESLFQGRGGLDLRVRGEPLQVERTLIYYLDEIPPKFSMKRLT

T2: human TROP2 on cells (human, UniProt P09758 27-323)
T2 construct: Full human TROP2, either transiently transfected into HEK or CHO cells or endogenous on cancer cell lines; also called HEK-TROP2; CHO-TROP2
T2 sequence: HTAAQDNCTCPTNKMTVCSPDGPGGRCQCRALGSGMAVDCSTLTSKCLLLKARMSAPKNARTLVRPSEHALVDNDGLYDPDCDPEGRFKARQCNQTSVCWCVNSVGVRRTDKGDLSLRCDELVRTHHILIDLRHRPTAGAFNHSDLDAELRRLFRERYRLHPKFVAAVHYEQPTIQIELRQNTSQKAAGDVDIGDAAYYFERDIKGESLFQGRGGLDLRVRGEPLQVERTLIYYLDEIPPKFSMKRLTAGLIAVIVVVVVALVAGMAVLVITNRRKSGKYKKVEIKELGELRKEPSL


Tests used:
[1] = molecular target: T1, recombinant human TROP2 extracellular …; experiment: competitive ELISA on coated recombinant human TROP2, competitor KD004-His, anti-His-HRP
Experimental: The epitope characterization was assessed by competitive ELISA (FIG. 8 and FIG. 9). Microplates were coated with human recombinant TROP2 at 4° C. overnight. After washing, plates were blocked with blocking buffer (PBS+2% BSA), for 1 hour at room temperature. Meanwhile, the dilution for anti-TROP2 VHH sdAbs was prepared with blocking buffer making two different dilutions depending on the tag. For sdAbs with His tag, the antibody was diluted to 28571.4 pM. For sdAbs without tag, antibodies were serially diluted from 2857142.9 pM to 0.29 pM (8 dilutions, 10×). After that, equal volume of the his-tagged sdAbs and serial diluted non-tagged sdAbs were mixed, to make the final concentration of his-tagged sdAbs 14285.7 pM and non-tagged sdAbs from 1428571.4 pM to 0.14 pM. After washing two times, the mixed antibody contents were added into the wells and the plates were incubated for 2 hours at room temperature. The HRP-conjugated anti-6× His was diluted to 1:5000 and added to the wells after washing three times. Any unbound conjugate was removed by washing after 1 hour incubation at room temperature, and the colorimetric reaction was performed by adding the same volume of Supersignal ELISA Pico Luminol/Enhancer and SuperSignal ELISA Pico Stable Peroxide Solution and detected on SpectraMax i3x Microplate Reader. Positive and negative controls were included in each plate.

human TROP2 on cells = molecular target: T2, human TROP2 on cells; experiment: flow cytometry, 100 nM antibody, transiently transfected HEK cells, APC anti-human Fc
Outline: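 HEK parental cells transiently transfected (lipofectamine) with human TROP2 truncation mutants, harvested 24 h later and Fc-blocked 10 min at RT. Anti-TROP2 sdAbs at 100 nM bound 30 min on ice, then detected with APC anti-human Fc (30 min) and 7-AAD added for viability.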

IC50 (read off the curve) [1] [nM]	binding result (human TROP2 on cells)	Binder
~60	–	KD004 (antibody, human IgG1, V domains shown, also called anti-TROP2 sdAb KD004) VH: QVQLQESGGGLVQPGRSLRLSCAASGFTFSGSDMSWVRQAPGKGPEWVSYITGSGTTYYPDSVKGRFTTSRDNAKNMLYLQMNSLKPDDTALYRCAKARLTDSHYVEDAWGQGTQVTVSS
–	binds	KD007 (antibody, human IgG1, V domains shown, also called anti-TROP2 sdAb KD007) VH: QVQLQESGGGLVQPGGSLRLSCAASGFAFSFYAMAWYRQAPGKQRDMVATITAYGNTNYADSVKGRFTTSRDNAKNTVYLQMNSLKPEDTAVYVCNANLPSASHNYWGQGTQVTVSS
